Source: publication doi:10.1101/2025.06.29.662183
pKd: −log10 of the molar value.

Target: CHIKV nsP2 protease (Chikungunya virus)
Assay: BLI

Substance pantinin-1 (peptide) has a pKd of 5.03.
